Data reported in patent publication US20210261667A1 (SHANGHAI NOVAMAB BIOPHARMACEUTICALS, published 2021).

Assays:
Assay in all cases: ELISA on coated antigen, A405 nm
human B7H3 = biological target: T1, human B7H3 (human, UniProt Q5ZPR3-2 29-245, limits assumed)
T1 sequence (looked up): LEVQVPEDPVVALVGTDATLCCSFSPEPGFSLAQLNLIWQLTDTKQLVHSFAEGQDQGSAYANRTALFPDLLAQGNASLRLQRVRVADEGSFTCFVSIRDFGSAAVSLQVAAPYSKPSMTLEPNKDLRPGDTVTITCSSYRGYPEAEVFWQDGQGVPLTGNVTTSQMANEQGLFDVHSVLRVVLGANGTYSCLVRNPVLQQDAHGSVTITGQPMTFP

PD-L1 (mouse) = biological target: T2, PD-L1 (mouse) (mouse, UniProt Q9EP73 19-238, limits assumed)
T2 construct: also called mouse PD-L1; murine PD-L1
T2 sequence (Q9EP73 19-238 limits assumed): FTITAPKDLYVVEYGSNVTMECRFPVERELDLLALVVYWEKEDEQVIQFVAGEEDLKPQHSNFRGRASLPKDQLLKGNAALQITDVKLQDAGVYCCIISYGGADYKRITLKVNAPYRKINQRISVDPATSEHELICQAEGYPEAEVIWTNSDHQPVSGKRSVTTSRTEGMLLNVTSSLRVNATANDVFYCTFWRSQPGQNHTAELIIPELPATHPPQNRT

human PD-L2 = biological target: T3, human PD-L2 (human, UniProt Q9BQ51 20-220, limits assumed)
T3 sequence (looked up): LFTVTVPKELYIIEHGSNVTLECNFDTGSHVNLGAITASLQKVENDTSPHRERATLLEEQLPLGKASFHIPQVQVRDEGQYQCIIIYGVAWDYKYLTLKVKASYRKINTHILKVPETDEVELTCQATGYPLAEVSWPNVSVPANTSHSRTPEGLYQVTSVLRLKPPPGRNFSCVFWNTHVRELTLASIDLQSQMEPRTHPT

B7H4 = biological target: T4, B7H4 (human, UniProt Q7Z7D3 29-258, limits assumed)
T4 sequence (looked up): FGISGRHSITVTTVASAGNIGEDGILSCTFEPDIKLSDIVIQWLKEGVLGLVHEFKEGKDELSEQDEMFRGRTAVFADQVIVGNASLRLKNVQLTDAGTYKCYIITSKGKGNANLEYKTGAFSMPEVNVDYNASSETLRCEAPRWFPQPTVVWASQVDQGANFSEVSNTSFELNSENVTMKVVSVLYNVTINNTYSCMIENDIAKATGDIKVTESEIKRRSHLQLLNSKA

binding result (human B7H3): no binding | binding result (PD-L1 (mouse)): no binding | binding result (human PD-L2): no binding | binding result (B7H4): no binding
B1: bivalent anti-PD-L1 single-domain antibody before humanization (Fc fusion)
chain: QVQLQESGGGSVQAGGSLRLSCTASGYNLSPSCMGWFRQAPGKEREGVAFTDADGSTRYADSVKARFTISRDNAENTLYLQMNSLKPEDTAMYYCAADFFSYCSVVFRASARDKYRGQGTQVTVSS
notes: also called bivalent PD-L1 single-domain antibody before humanization; bivalent single-domain antibody before humanization; not shown: IgG1 Fc of vector pFUSE-IgG1
